In article doi:10.1101/2023.06.06.543845 (bioRxiv, 2023):

Key:
[1] = biological target: T1, Mycobacterium tuberculosis NrdI (Mycobacterium tuberculosis, UniProt P9WIZ3); assay: crystal structure
T1 sequence: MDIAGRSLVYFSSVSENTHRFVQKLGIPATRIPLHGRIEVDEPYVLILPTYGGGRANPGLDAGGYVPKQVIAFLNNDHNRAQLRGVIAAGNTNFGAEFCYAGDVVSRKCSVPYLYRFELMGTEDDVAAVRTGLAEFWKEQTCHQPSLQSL

crystal structure = biological target: the molecule itself; assay: crystal structure

B1: Mycobacterium tuberculosis NrdF2 (R2 subunit of the Class Ib ribonucleotide reductase) (enzyme)
chain: TGNAKLIDRVSAINWNRLQDEKDAEVWDRLTGNFWLPEKVPVSNDIPSWGTLTAGEKQLTMRVFTGLTMLDTIQGTVGAVSLIPDALTPHEEAVLTNIAFMESVHAKSYSQIFSTLCSTAEIDDAFRWSEENRNLQRKAEIVLQYYRGDEPLKRKVASTLLESFLFYSGFYLPMYWSSRAKLTNTADMIRLIIRDEAVHGYYIGYKFQRGLALVDDVTRAELKDYTYELLFELYDNEVEYTQDLYDEVGLTEDVKKFLRYNANKALMNLGYEALFPRDETDVNPAILSALSPNADENHDFFSGSGSSYVIGKAVVTEDDDWDF
stoichiometry N [1]: 2 NrdF2 per NrdI
stoichiometry N (crystal structure): 2
